The values that follow come from article PMC6187371.

The target of one test is duligotuzumab meFab. Briefly: single molecule localization microscopy.
A further test concerns the target duligotuzumab memAb. Briefly: single molecule localization microscopy.

Usually stoichiometry N stands for the number of molecules, sites or subunits per partner or assembly. On to meditope-Alexa Fluor 647 (peptide), for which the stoichiometry N with duligotuzumab meFab came out at 1; with duligotuzumab memAb, 2.
